Source: patent US20220298257A1

Experiments:
[1] = target: full-length human CD22 fused with flag and Myc tags at the C-terminus, on HEK293 or K562 cells (human) (UniProt P20273); experiment: cell-based or functional assay
[2] = target: full-length human CD22 fused with flag and Myc tags at the C-terminus, on HEK293 or K562 cells (human) (UniProt P20273); experiment: ELISA, IgG format; antigen format not described
[3] = target: full-length human CD22 fused with flag and Myc tags at the C-terminus, on HEK293 or K562 cells (human) (UniProt P20273); experiment: FACS on CD22-expressing cells (HEK293-CD22 by the table's head), anti-hFc Alexa 488

Sequence of full-length human CD22 fused with flag and Myc tags at the C-terminus, on HEK293 or K562 cells (human) (P20273 20-847): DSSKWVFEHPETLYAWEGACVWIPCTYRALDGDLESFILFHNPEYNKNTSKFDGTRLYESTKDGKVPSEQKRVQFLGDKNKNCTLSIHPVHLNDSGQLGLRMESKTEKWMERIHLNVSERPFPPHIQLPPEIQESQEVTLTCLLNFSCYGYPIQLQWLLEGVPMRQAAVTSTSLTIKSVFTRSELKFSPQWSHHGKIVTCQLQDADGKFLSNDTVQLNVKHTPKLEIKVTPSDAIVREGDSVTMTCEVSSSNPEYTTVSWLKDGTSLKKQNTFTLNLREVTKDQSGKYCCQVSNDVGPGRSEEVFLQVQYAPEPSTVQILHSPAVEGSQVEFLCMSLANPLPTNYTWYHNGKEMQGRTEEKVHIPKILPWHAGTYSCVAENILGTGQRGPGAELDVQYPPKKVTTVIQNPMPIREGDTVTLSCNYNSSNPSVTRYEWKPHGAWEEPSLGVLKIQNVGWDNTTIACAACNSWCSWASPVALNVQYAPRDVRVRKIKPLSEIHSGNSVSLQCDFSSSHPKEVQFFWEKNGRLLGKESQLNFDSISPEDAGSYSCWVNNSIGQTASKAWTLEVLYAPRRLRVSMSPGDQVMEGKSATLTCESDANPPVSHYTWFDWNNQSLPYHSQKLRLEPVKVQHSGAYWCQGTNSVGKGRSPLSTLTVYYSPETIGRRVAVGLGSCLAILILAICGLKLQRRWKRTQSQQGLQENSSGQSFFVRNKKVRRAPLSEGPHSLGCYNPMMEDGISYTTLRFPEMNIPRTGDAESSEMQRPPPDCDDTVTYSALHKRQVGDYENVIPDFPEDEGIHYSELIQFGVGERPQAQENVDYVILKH

Q: Which results are given for BL22 (anti-CD22) (antibody)?
A: EC50 in ADCC assay (Promega ADCC Bioreporter, CD22/HEK293 target cells) [1]: 3310 pM; T½ (Hour) of internalization, CD22/HEK293 cells, pHrodo secondary [1]: 3.95 Hour; EC50 [2]: 4 pM; EC50 [3]: 44 pM
